Source: the supplement of paper PMC10567573

B1: MMP1 (parent)
chain: FVRGDHRDNSPFDGPGGNLAHAFQ

Variants of: B1
Experiment: protein stability index of a GFP-peptide fusion (GPS, HEK-293T) (PSI 1-6); higher = more stable
Details: c terminus: a fixed tail appended
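Further: lentivirally expressed fusions sorted by FACS into six bins by GFP to DsRed ratio, PSI derived from sequencing read proportions per bin multiplied by bin number.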

Variant	protein stability index
FVRGDHRDNSPFDGPGGNLARAFQ	1.33
FVRGDHRDNSPFDGPGGNLAPAFQ	1.47
FVRGDHRDNSPFDGPGGNLAGAFQ	1.81
FVRGDHRDNSPFDGPGGNLAQAFQ	1.62
FVRGDHRDNSPFDGPGGNLAAAFQ	2.77
FVRGDHRDNSPFDGPGGNLANAFQ	2.15
FVRGDHRDNSPFDGPGGNLAIAFQ	2.7
FVRGDHRDNSPFDGPGGNLAMAFQ	2.01
FVRGDHRDNSPFDGPGGNLASAFQ	2.2
FVRGDHRDNSPFDGPGGNLAEAFQ	1.94
FVRGDHRDNSPFDGPGGNLAFAFQ	2.31
FVRGDHRDNSPFDGPGGNLAKAFQ	1.95
FVRGDHRDNSPFDGPGGNLACAFQ	2.53
FVRGDHRDNSPFDGPGGNLALAFQ	1.57
FVRGDHRDNSPFDGPGGNLADAFQ	2.15
FVRGDHRDNSPFDGPGFNLAHAFQ	2.18
FVRGDHRDNSPFDGPGLNLAHAFQ	2.29
FVRGDHRDNSPFDGPGMNLAHAFQ	3.38
FVRGDHRDNSPFDGPGANLAHAFQ	1.58
FVRGDHRDNSPFDGPGQNLAHAFQ	1.95
FVRGDHRDNSPFDGPGWNLAHAFQ	2.48
FVRGDHRDNSPFDGPGSNLAHAFQ	2.3
FVRGDHRDNSPFDGPGENLAHAFQ	1.6
FVRGDHRDNSPFDGPGPNLAHAFQ	1.37

Variant	protein stability index
FVRGDHRDNSPFDGPGDNLAHAFQ	1.82
FVRGDHRDNSPFDGPGRNLAHAFQ	1.79
FVRGDHRDNSPFDGPGHNLAHAFQ	1.9
FVRGDHRDNSPFDGPGINLAHAFQ	2.43
FVRGDHRDNSPFDGPGTNLAHAFQ	2.05
FVRGDHRDNSPFDGPGYNLAHAFQ	3.31
FVRGDHRDNSPFDGPGNNLAHAFQ	2.48
FVRGDHRDNSPFDGPGKNLAHAFQ	1.92
FVRGDHRDNSPFDGPGCNLAHAFQ	2.62
FVRGDHRDNSPFDGPGVNLAHAFQ	2.43
FVRGDHRDNSPFDGPGGNLEHAFQ	1.89
FVRGDHRDNSPFDGPGGNLCHAFQ	2.69
FVRGDHRDNSPFDGPGGNLPHAFQ	1.74
FVRGDHRDNSPFDGPGGNLNHAFQ	1.76
FVRGDHRDNSPFDGPGGNLSHAFQ	1.88
FVRGDHRDNSPFDGPGGNLHHAFQ	1.44
FVRGDHRDNSPFDGPGGNLRHAFQ	1.43
FVRGDHRDNSPFDGPGGNLQHAFQ	1.69
FVRGDHRDNSPFDGPGGNLGHAFQ	1.92
FVRGDHRDNSPFDGPGGNLVHAFQ	1.99
FVRGDHRDNSPFDGPGGNLMHAFQ	1.88
FVRGDHRDNSPFDGPGGNLFHAFQ	2.66
FVRGDHRDNSPFDGPGGNLLHAFQ	2.49
FVRGDHRDNSPFDGPGGNLIHAFQ	2.04

Variant	protein stability index
FVRGDHRDNSPFDGPGGNLKHAFQ	2.56
FVRGDHRDNSPFDGPGGNLTHAFQ	3.31
FVRGDHRDNSPFDGPGGNLDHAFQ	1.74
FVRGDHRDNSPFDGPGGNLYHAFQ	1.29
FVRGDHRDNSPFDGPGGNNAHAFQ	1.73
FVRGDHRDNSPFDGPGGNMAHAFQ	2.1
FVRGDHRDNSPFDGPGGNVAHAFQ	3.29
FVRGDHRDNSPFDGPGGNCAHAFQ	1.96
FVRGDHRDNSPFDGPGGNHAHAFQ	1.39
FVRGDHRDNSPFDGPGGNFAHAFQ	2
FVRGDHRDNSPFDGPGGNRAHAFQ	1.66
FVRGDHRDNSPFDGPGGNQAHAFQ	1.51
FVRGDHRDNSPFDGPGGNGAHAFQ	2.63
FVRGDHRDNSPFDGPGGNIAHAFQ	1.95
FVRGDHRDNSPFDGPGGNYAHAFQ	1.64
FVRGDHRDNSPFDGPGGNEAHAFQ	1.99
FVRGDHRDNSPFDGPGGNDAHAFQ	2.35
FVRGDHRDNSPFDGPGGNPAHAFQ	1.49
FVRGDHRDNSPFDGPGGNSAHAFQ	1.15
FVRGDHRDNSPFDGPGGNAAHAFQ	1.38
FVRGDHRDNSPFDGPGGNTAHAFQ	2.08
FVRGDHRDNSPFDGPGGNKAHAFQ	2.25
FVRGDHRDNSPFDGPHGNLAHAFQ	1.87
FVRGDHRDNSPFDGPRGNLAHAFQ	2.45

Variant	protein stability index
FVRGDHRDNSPFDGPMGNLAHAFQ	1.79
FVRGDHRDNSPFDGPCGNLAHAFQ	2.63
FVRGDHRDNSPFDGPVGNLAHAFQ	1.83
FVRGDHRDNSPFDGPQGNLAHAFQ	2.75
FVRGDHRDNSPFDGPYGNLAHAFQ	2.73
FVRGDHRDNSPFDGPEGNLAHAFQ	2.54
FVRGDHRDNSPFDGPAGNLAHAFQ	1.34
FVRGDHRDNSPFDGPSGNLAHAFQ	2.23
FVRGDHRDNSPFDGPPGNLAHAFQ	1.75
FVRGDHRDNSPFDGPTGNLAHAFQ	2.32
FVRGDHRDNSPFDGPDGNLAHAFQ	2.29
FVRGDHRDNSPFDGPWGNLAHAFQ	3.43
FVRGDHRDNSPFDGPNGNLAHAFQ	1.69
FVRGDHRDNSPFDGPKGNLAHAFQ	1.52
FVRGDHRDNSPFDGPIGNLAHAFQ	2.4
FVRGDHRDNSPFDGPLGNLAHAFQ	2.81
FVRGDHRDNSPFDDPGGNLAHAFQ	2.25
FVRGDHRDNSPFDHPGGNLAHAFQ	1.39
FVRGDHRDNSPFDIPGGNLAHAFQ	2.51
FVRGDHRDNSPFDWPGGNLAHAFQ	1.69
FVRGDHRDNSPFDVPGGNLAHAFQ	3.45
FVRGDHRDNSPFDCPGGNLAHAFQ	2.99
FVRGDHRDNSPFDQPGGNLAHAFQ	3.14
FVRGDHRDNSPFDFPGGNLAHAFQ	2.93

Variant	protein stability index
FVRGDHRDNSPFDKPGGNLAHAFQ	1.77
FVRGDHRDNSPFDSPGGNLAHAFQ	1.89
FVRGDHRDNSPFDEPGGNLAHAFQ	2.06
FVRGDHRDNSPFDRPGGNLAHAFQ	1.6
FVRGDHRDNSPFDYPGGNLAHAFQ	2.2
FVRGDHRDNSPFDTPGGNLAHAFQ	1.76
FVRGDHRDNSPFDPPGGNLAHAFQ	1.91
FVRGDHRDNSPFDAPGGNLAHAFQ	2.12
FVRGDHRDNSPFDLPGGNLAHAFQ	2.44
FVRGDHRDNSPFDNPGGNLAHAFQ	1.7
FVRGDHRDNSPFRGPGGNLAHAFQ	1.48
FVRGDHRDNSPFVGPGGNLAHAFQ	3.19
FVRGDHRDNSPFIGPGGNLAHAFQ	1.63
FVRGDHRDNSPFKGPGGNLAHAFQ	1.59
FVRGDHRDNSPFQGPGGNLAHAFQ	2.21
FVRGDHRDNSPFGGPGGNLAHAFQ	2.6
FVRGDHRDNSPFCGPGGNLAHAFQ	2.36
FVRGDHRDNSPFEGPGGNLAHAFQ	2.57
FVRGDHRDNSPFNGPGGNLAHAFQ	1.77
FVRGDHRDNSPFMGPGGNLAHAFQ	1.03
FVRGDHRDNSPFTGPGGNLAHAFQ	2.27
FVRGDHRDNSPFYGPGGNLAHAFQ	3.03
FVRGDHRDNSPFPGPGGNLAHAFQ	3.31
FVRGDHRDNSPFSGPGGNLAHAFQ	2.56

Variant	protein stability index
FVRGDHRDNSPFHGPGGNLAHAFQ	3.02
FVRGDHRDNSPFAGPGGNLAHAFQ	1.37
FVRGDHRDNSPFLGPGGNLAHAFQ	1.47
FVRGDHRDNSPFDGPGGRLAHAFQ	3.01
FVRGDHRDNSPFDGPGGSLAHAFQ	2.18
FVRGDHRDNSPFDGPGGTLAHAFQ	1.92
FVRGDHRDNSPFDGPGGFLAHAFQ	4.34
FVRGDHRDNSPFDGPGGMLAHAFQ	1.99
FVRGDHRDNSPFDGPGGYLAHAFQ	1.7
FVRGDHRDNSPFDGPGGQLAHAFQ	2.27
FVRGDHRDNSPFDGPGGPLAHAFQ	2.17
FVRGDHRDNSPFDGPGGKLAHAFQ	2.5
FVRGDHRDNSPFDGPGGILAHAFQ	1.01
FVRGDHRDNSPFDGPGGHLAHAFQ	1.88
FVRGDHRDNSPFDGPGGVLAHAFQ	2.14
FVRGDHRDNSPFDGPGGLLAHAFQ	3.23
FVRGDHRDNSPFDGPGGCLAHAFQ	1.5
FVRGDHRDNSPFDGPGGELAHAFQ	2.15
FVRGDHRDNSPFDGPGGALAHAFQ	2.74
FVRGDHRDNSPFDGPGGGLAHAFQ	1.99
FVRGDHRDNSPFDGPGGDLAHAFQ	1.5
FVRGDHRDNSPPDGPGGNLAHAFQ	2.31
FVRGDHRDNSPQDGPGGNLAHAFQ	1.8
FVRGDHRDNSPDDGPGGNLAHAFQ	2.3

Variant	protein stability index
FVRGDHRDNSPTDGPGGNLAHAFQ	2.39
FVRGDHRDNSPYDGPGGNLAHAFQ	2.89
FVRGDHRDNSPNDGPGGNLAHAFQ	1.83
FVRGDHRDNSPADGPGGNLAHAFQ	1.91
FVRGDHRDNSPWDGPGGNLAHAFQ	3.55
FVRGDHRDNSPCDGPGGNLAHAFQ	2
FVRGDHRDNSPHDGPGGNLAHAFQ	1.99
FVRGDHRDNSPGDGPGGNLAHAFQ	2.24
FVRGDHRDNSPRDGPGGNLAHAFQ	1.84
FVRGDHRDNSPSDGPGGNLAHAFQ	1.95
FVRGDHRDNSPIDGPGGNLAHAFQ	1.72
FVRGDHRDNSPLDGPGGNLAHAFQ	1.72
FVRGDHRDNSPVDGPGGNLAHAFQ	1.94
FVRGDHRDNSPEDGPGGNLAHAFQ	1.82
FVRGDHRDNSPMDGPGGNLAHAFQ	2.08
FVRGDHRDNSPKDGPGGNLAHAFQ	2.27
FVRGDHRDNSPFDGAGGNLAHAFQ	1.53
FVRGDHRDNSPFDGMGGNLAHAFQ	2.72
FVRGDHRDNSPFDGGGGNLAHAFQ	1.61
FVRGDHRDNSPFDGNGGNLAHAFQ	2.11
FVRGDHRDNSPFDGQGGNLAHAFQ	1.64
FVRGDHRDNSPFDGTGGNLAHAFQ	1.38
FVRGDHRDNSPFDGIGGNLAHAFQ	1.72
FVRGDHRDNSPFDGDGGNLAHAFQ	2.97

Variant	protein stability index
FVRGDHRDNSPFDGSGGNLAHAFQ	4.22
FVRGDHRDNSPFDGKGGNLAHAFQ	1.94
FVRGDHRDNSPFDGRGGNLAHAFQ	3.76
FVRGDHRDNSPFDGWGGNLAHAFQ	1.87
FVRGDHRDNSPFDGHGGNLAHAFQ	1.79
FVRGDHRDNSPFDGLGGNLAHAFQ	1.95
FVRGDHRDNSPFDGFGGNLAHAFQ	2.1
FVRGDHRDNSPFDGYGGNLAHAFQ	2.52
FVRGDHRDNSPFDGEGGNLAHAFQ	2.37
FVRGDHRDNSWFDGPGGNLAHAFQ	1.84
FVRGDHRDNSKFDGPGGNLAHAFQ	1.78
FVRGDHRDNSRFDGPGGNLAHAFQ	2.4
FVRGDHRDNSQFDGPGGNLAHAFQ	2.02
FVRGDHRDNSTFDGPGGNLAHAFQ	1.8
FVRGDHRDNSMFDGPGGNLAHAFQ	1.6
FVRGDHRDNSYFDGPGGNLAHAFQ	2.04
FVRGDHRDNSSFDGPGGNLAHAFQ	2.91
FVRGDHRDNSLFDGPGGNLAHAFQ	1.34
FVRGDHRDNSVFDGPGGNLAHAFQ	2.06
FVRGDHRDNSNFDGPGGNLAHAFQ	2.13
